According to patent publication US20230140797A1 (published 2023):

What was measured:
Assay in all cases: SPR
[1] = biological target: human FcγRIa extracellular domain with C-terminal His tag (human, UniProt P12314 16-292)
[2] = biological target: T1, human FcγRIIa type H (131His) extracellular domain with C-terminal His tag (human, UniProt P12318 34-217)
T1 sequence (looked up): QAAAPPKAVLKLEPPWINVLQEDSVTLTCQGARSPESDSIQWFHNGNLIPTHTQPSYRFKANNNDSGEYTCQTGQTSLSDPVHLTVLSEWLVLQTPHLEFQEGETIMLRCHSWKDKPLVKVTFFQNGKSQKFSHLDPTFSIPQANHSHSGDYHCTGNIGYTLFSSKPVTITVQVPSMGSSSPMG

[3] = biological target: T2, human FcγRIIa type R (131Arg) extracellular domain with C-terminal His tag (human, UniProt P12318 34-217)
T2 sequence (looked up): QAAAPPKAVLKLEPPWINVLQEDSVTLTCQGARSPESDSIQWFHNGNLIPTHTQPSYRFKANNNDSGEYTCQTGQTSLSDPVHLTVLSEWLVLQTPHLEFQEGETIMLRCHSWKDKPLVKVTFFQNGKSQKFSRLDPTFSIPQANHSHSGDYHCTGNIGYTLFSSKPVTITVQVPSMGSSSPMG

[4] = biological target: T3, human FcγRIIb extracellular domain with C-terminal His tag (human, UniProt P31994 43-217)
T3 sequence (looked up): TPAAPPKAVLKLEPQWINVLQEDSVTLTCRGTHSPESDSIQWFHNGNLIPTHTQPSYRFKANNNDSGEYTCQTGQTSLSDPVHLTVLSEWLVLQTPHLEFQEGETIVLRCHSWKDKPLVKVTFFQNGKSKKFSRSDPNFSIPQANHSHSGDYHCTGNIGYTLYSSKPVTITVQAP

Chain of human FcγRIa extracellular domain with C-terminal His tag (P12314 16-292): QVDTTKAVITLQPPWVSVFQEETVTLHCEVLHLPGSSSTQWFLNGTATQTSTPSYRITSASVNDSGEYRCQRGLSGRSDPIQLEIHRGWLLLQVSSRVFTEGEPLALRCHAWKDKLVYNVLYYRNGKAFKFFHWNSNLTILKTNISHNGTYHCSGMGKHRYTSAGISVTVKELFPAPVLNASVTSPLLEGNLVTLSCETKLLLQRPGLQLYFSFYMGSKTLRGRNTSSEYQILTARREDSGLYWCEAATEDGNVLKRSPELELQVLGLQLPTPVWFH

B1: IL6R-BP087/IL6R-L (antibody, human IgG1, kappa)
heavy: QVQLQESGPGLVKPSETLSLTCAVSGHSISHDHAWSWVRQPPGEGLEWIGFISYSGITNYNPSLQGRVTISRDNSKNTLYLQMNSLRAEDTAVYYCARSLARTTAMDYWGEGTLVTVSSASTKGPSVFPLAPSSKSTSGGTAALGCLVKDYFPEPVTVSWNSGALTSGVHTFPAVLQSSGLYSLSSVVTVPSSSLGTQTYICNVNHKPSNTKVDKKVEPKSCDKTHTCPPCPAPEYLGGDSVFLFPPKPKDTLMISRTPEVTCVVVDVSHEDPEVKFNWYVDGVEVHNAKTKPREEQYNSTYRVVSVLTVLHQDWLNGKEYKCKVSNKALPKPIEKTISKAKGQPREPQVYTLPPSRDELTKNQVSLTCLVKGFYPSDIAVEWESNGQPENNYKTTPPVLDSDGSFFLYSKLTVDKSRWQQGNVFSCSVMHEALHNHYTQESLSLSP
light: not shown
[1]
  Kd: 3800 nM

B2: IL6R-BP493/IL6R-L (antibody, human IgG1, kappa)
heavy: QVQLQESGPGLVKPSETLSLTCAVSGHSISHDHAWSWVRQPPGEGLEWIGFISYSGITNYNPSLQGRVTISRDNSKNTLYLQMNSLRAEDTAVYYCARSLARTTAMDYWGEGTLVTVSSASTKGPSVFPLAPSSKSTSGGTAALGCLVKDYFPEPVTVSWNSGALTSGVHTFPAVLQSSGLYSLSSVVTVPSSSLGTQTYICNVNHKPSNTKVDKKVEPKSCDKTHTCPPCPAPELLGGDSVFLFPPKPKDTLMISRTPEVTCVVIDVAEEDGEVKFNWYVDGVEVHNAKTKPREEQDNSTYRVVSVLTVLHQDWLNGKEYKCKVSNKALPAPIEKTISKAKGQPREPQVYTLPPSRDELTKNQVSLTCLVKGFYPSDIAVEWESNGQPENNYKTTPPVLDSDGSFFLYSKLTVDKSRWQQGNVFSCSVMHEALHNHYTQESLSLSP
light: not shown
[2]
  Kd: 13000 nM
[3]
  Kd: 11 nM

B3: IL6R-BP481/IL6R-L (antibody, human IgG1, kappa)
heavy: QVQLQESGPGLVKPSETLSLTCAVSGHSISHDHAWSWVRQPPGEGLEWIGFISYSGITNYNPSLQGRVTISRDNSKNTLYLQMNSLRAEDTAVYYCARSLARTTAMDYWGEGTLVTVSSASTKGPSVFPLAPSSKSTSGGTAALGCLVKDYFPEPVTVSWNSGALTSGVHTFPAVLQSSGLYSLSSVVTVPSSSLGTQTYICNVNHKPSNTKVDKKVEPKSCDKTHTCPPCPAPDLLGDDSVFLFPPKPKDTLMISRTPEVTCVVIDVAEEDGEVKFNWYVDGVEVHNAKTKPREEQYNSTYRVVSVLTVLHQDWLNGKEYKCKVSNKALPAPIEKTISKAKGQPREPQVYTLPPSRDELTKNQVSLTCLVKGFYPSDIAVEWESNGQPENNYKTTPPVLDSDGSFFLYSKLTVDKSRWQQGNVFSCSVMHEALHNHYTQESLSLSP
light: not shown
[2]
  Kd: 8300 nM

B4: IL6R-BP441/IL6R-L (antibody, human IgG1, kappa)
heavy: QVQLQESGPGLVKPSETLSLTCAVSGHSISHDHAWSWVRQPPGEGLEWIGFISYSGITNYNPSLQGRVTISRDNSKNTLYLQMNSLRAEDTAVYYCARSLARTTAMDYWGEGTLVTVSSASTKGPSVFPLAPSSKSTSGGTAALGCLVKDYFPEPVTVSWNSGALTSGVHTFPAVLQSSGLYSLSSVVTVPSSSLGTQTYICNVNHKPSNTKVDKKVEPKSCDKTHTCPPCPAPDLLGDDSVFLFPPKPKDTLMISRTPEVTCVVVDLSEEDGEVKFNWYVDGVEVHNAKTKPREEQYNSTYRVVSVLTVLHQDWLNGKEYKCKVSNKALPRPIEKTISKAKGQPREPQVYTLPPSRDELTKNQVSLTCLVKGFYPSDIAVEWESNGQPENNYKTTPPVLDSDGSFFLYSKLTVDKSRWQQGNVFSCSVMHEALHNHYTQESLSLSP
light: not shown
[2]
  Kd: 3 nM

B5: IL6R-BP143/IL6R-L (antibody, human IgG1, kappa)
heavy: QVQLQESGPGLVKPSETLSLTCAVSGHSISHDHAWSWVRQPPGEGLEWIGFISYSGITNYNPSLQGRVTISRDNSKNTLYLQMNSLRAEDTAVYYCARSLARTTAMDYWGEGTLVTVSSASTKGPSVFPLAPSSKSTSGGTAALGCLVKDYFPEPVTVSWNSGALTSGVHTFPAVLQSSGLYSLSSVVTVPSSSLGTQTYICNVNHKPSNTKVDKKVEPKSCDKTHTCPPCPAPEYLGGDSVFLFPPKPKDTLMISRTPEVTCVVVDVSHEDPEVKFNWYVDGVEVHNAKTKPREEQYNSTYRVVSVLTVLHQDWLNGKEYKCKVSNAALPAPIEKTISKAKGQPREPQVYTLPPSRDELTKNQVSLTCLVKGFYPSDIAVEWESNGQPENNYKTTPPVLDSDGSFFLYSKLTVDKSRWQQGNVFSCSVMHEALHNHYTQESLSLSP
light: not shown
[1]
  Kd: 18 nM

B6: IL6R-BP440/IL6R-L (antibody, human IgG1, kappa)
heavy: QVQLQESGPGLVKPSETLSLTCAVSGHSISHDHAWSWVRQPPGEGLEWIGFISYSGITNYNPSLQGRVTISRDNSKNTLYLQMNSLRAEDTAVYYCARSLARTTAMDYWGEGTLVTVSSASTKGPSVFPLAPSSKSTSGGTAALGCLVKDYFPEPVTVSWNSGALTSGVHTFPAVLQSSGLYSLSSVVTVPSSSLGTQTYICNVNHKPSNTKVDKKVEPKSCDKTHTCPPCPAPDLLGDDSVFLFPPKPKDTLMISRTPEVTCVVIDVSEEDGEVKFNWYVDGVEVHNAKTKPREEQYNSTYRVVSVLTVLHQDWLNGKEYKCKVSNKALPRPIEKTISKAKGQPREPQVYTLPPSRDELTKNQVSLTCLVKGFYPSDIAVEWESNGQPENNYKTTPPVLDSDGSFFLYSKLTVDKSRWQQGNVFSCSVMHEALHNHYTQESLSLSP
light: not shown
[2]
  Kd: 1500 nM

B7: IL6R-BP436/IL6R-L (antibody, human IgG1, kappa)
heavy: QVQLQESGPGLVKPSETLSLTCAVSGHSISHDHAWSWVRQPPGEGLEWIGFISYSGITNYNPSLQGRVTISRDNSKNTLYLQMNSLRAEDTAVYYCARSLARTTAMDYWGEGTLVTVSSASTKGPSVFPLAPSSKSTSGGTAALGCLVKDYFPEPVTVSWNSGALTSGVHTFPAVLQSSGLYSLSSVVTVPSSSLGTQTYICNVNHKPSNTKVDKKVEPKSCDKTHTCPPCPAPDLLGDDSVFLFPPKPKDTLMISRTPEVTCVVVDVAEEDGEVKFNWYVDGVEVHNAKTKPREEQDNSTYRVVSVLTVLHQDWLNGKEYKCKVSNKALPRPTEKTISKAKGQPREPQVYTLPPSRDELTKNQVSLTCLVKGFYPSDIAVEWESNGQPENNYKTTPPVLDSDGSFFLYSKLTVDKSRWQQGNVFSCSVMHEALHNHYTQESLSLSP
light: not shown
[4]
  Kd: 51 nM

B8: IL6R-BP431/IL6R-L (antibody, human IgG1, kappa)
heavy: QVQLQESGPGLVKPSETLSLTCAVSGHSISHDHAWSWVRQPPGEGLEWIGFISYSGITNYNPSLQGRVTISRDNSKNTLYLQMNSLRAEDTAVYYCARSLARTTAMDYWGEGTLVTVSSASTKGPSVFPLAPSSKSTSGGTAALGCLVKDYFPEPVTVSWNSGALTSGVHTFPAVLQSSGLYSLSSVVTVPSSSLGTQTYICNVNHKPSNTKVDKKVEPKSCDKTHTCPPCPAPDLLGDDSVFLFPPKPKDTLMISRTPEVTCVVVDVGEDDGEVKFNWYVDGVEVHNAKTKPREEQYNSTYRVVSVLTVLHQDWLNGKEYKCKVSNKALPRPIEKTISKAKGQPREPQVYTLPPSRDELTKNQVSLTCLVKGFYPSDIAVEWESNGQPENNYKTTPPVLDSDGSFFLYSKLTVDKSRWQQGNVFSCSVMHEALHNHYTQESLSLSP
light: not shown
[4]
  Kd: 1.2 nM

B9: IL6R-BP150/IL6R-L (antibody, human IgG1, kappa)
heavy: QVQLQESGPGLVKPSETLSLTCAVSGHSISHDHAWSWVRQPPGEGLEWIGFISYSGITNYNPSLQGRVTISRDNSKNTLYLQMNSLRAEDTAVYYCARSLARTTAMDYWGEGTLVTVSSASTKGPSVFPLAPSSKSTSGGTAALGCLVKDYFPEPVTVSWNSGALTSGVHTFPAVLQSSGLYSLSSVVTVPSSSLGTQTYICNVNHKPSNTKVDKKVEPKSCDKTHTCPPCPAPEYLGDDSVFLFPPKPKDTLMISRTPEVTCVVVDVSHEDPEVKFNWYVDGVEVHNAKTKPREEQYNSTYRVVSVLTVLHQDWLNGKEYKCKVSNAALPRPIEKTISKAKGQPREPQVYTLPPSRDELTKNQVSLTCLVKGFYPSDIAVEWESNGQPENNYKTTPPVLDSDGSFFLYSKLTVDKSRWQQGNVFSCSVMHEALHNHYTQESLSLSP
light: not shown
[1]
  Kd: 300 nM

B10: IL6R-BP479/IL6R-L (antibody, human IgG1, kappa)
heavy: QVQLQESGPGLVKPSETLSLTCAVSGHSISHDHAWSWVRQPPGEGLEWIGFISYSGITNYNPSLQGRVTISRDNSKNTLYLQMNSLRAEDTAVYYCARSLARTTAMDYWGEGTLVTVSSASTKGPSVFPLAPSSKSTSGGTAALGCLVKDYFPEPVTVSWNSGALTSGVHTFPAVLQSSGLYSLSSVVTVPSSSLGTQTYICNVNHKPSNTKVDKKVEPKSCDKTHTCPPCPAPDLLGDDSVFLFPPKPKDTLMISRTPEVTCVVIDLAEEDGEVKFNWYVDGVEVHNAKTKPREEQYNSTYRVVSVLTVLHQDWLNGKEYKCKVSNKALPAPIEKTISKAKGQPREPQVYTLPPSRDELTKNQVSLTCLVKGFYPSDIAVEWESNGQPENNYKTTPPVLDSDGSFFLYSKLTVDKSRWQQGNVFSCSVMHEALHNHYTQESLSLSP
light: not shown
[4]
  Kd: 5600 nM

B11: IL6R-BP425/IL6R-L (antibody, human IgG1, kappa)
heavy: QVQLQESGPGLVKPSETLSLTCAVSGHSISHDHAWSWVRQPPGEGLEWIGFISYSGITNYNPSLQGRVTISRDNSKNTLYLQMNSLRAEDTAVYYCARSLARTTAMDYWGEGTLVTVSSASTKGPSVFPLAPSSKSTSGGTAALGCLVKDYFPEPVTVSWNSGALTSGVHTFPAVLQSSGLYSLSSVVTVPSSSLGTQTYICNVNHKPSNTKVDKKVEPKSCDKTHTCPPCPAPDLLGDDSVFLFPPKPKDTLMISRTPEVTCVVVDLAEEDGEVKFNWYVDGVEVHNAKTKPREEQYNSTYRVVSVLTVLHQDWLNGKEYKCKVSNKALPRPIEKTISKAKGQPREPQVYTLPPSRDELTKNQVSLTCLVKGFYPSDIAVEWESNGQPENNYKTTPPVLDSDGSFFLYSKLTVDKSRWQQGNVFSCSVMHEALHNHYTQESLSLSP
light: not shown
[4]
  Kd: 0.1 nM
